Measured values as given in a protein production outcome set (Wang et al. 2014).

Assay: label from the status in PepcDB records

Row | Sequence | protein production
1 | MSKEIFDTFKFKCGAELKNRVLMAPMTIQAGYFDGSVTSEMIDYYQFRAGDASAIIVESCFVENHGRGFPGAIGIDNDDKIPGLKRLAEAIQAKGSKAILQLYHAGRMANPKFNEGEQPISASPIAALRPDAVPPREMTHAQINQMIDDFGEATRRAIEAGFDGVEIHGANTYLLQQFFSPHSNRRQDSWGGSREKRTRFPIEVLTKVQHVVAEKEASHFIIGYRFSPEEIEEPGIRFEDTMFLLNTLAEYEPDYFHISANSYQRTSIVNQEDTEPLINKYIKMQSAQLAKIPLIGVGSIAQRQDAEHALELGYDLLSVGKAYLVEPQWTDKISQNEEVEQFVDIHDQKVLHIPSPLWKVMDFMILDKEEEHRKYEKLKALQNKKVKFNKGTYHVYAKGHNGNLPMKVQLSEDKIVSIEVDDSGESEGIANPVFERLPQDIINGQTLNVDVISGATVTSEGIVQGIADAIEQAGEDPDILRARPKPVVQWSDEVVEETTDVVVIGTGGAGLSAAATVLDEGKEVIMLEKFAAIGGNTIRTGGQVNAAEPKWQNAFPALAGEKETLIQLLNHDENDIDEAYIEDFNTLKRQIKDYLENSSNEDEYLFDSVELHRIQTYLGGKRKDRNNVEISGDYDLVKTLTDNVLESVYWLKDKGVHFDRSFVDMPVGALWRRGHKPMKAQGLEYIENLGDYVKHNHGRIFTETTAEKLIKEGNQVVGIEARKANGAKVKIHTRHGVVLATGGFGANTKMLQQYNTYWDNIPDDIKTTNSPAITGDGIRLGVQAGADIVGMGFSQMMPISDPKTGALFTGLIVTPSNFVFVNKEGQRFVNEFESRDVLSKAALEQKDGIFYIIADANIKALAMNTTEDKINQELEDGTLVKADTLEALAQKLNIDTTTFVNTIERYNTFVEQGQDEDFNKNAFDLKIEKAPFYATPRKPAIHHTMGGLKINTHAQVIDVEGHIIEGLYAAGEVAGGIHAGNRLGGNALADIFTFGRIAGQSAVTK | failed
2 | MSKFAMVFPGQGSQSLGMLADLAAQFPIVEATFSEASSVLGYDLWQLVQQGPAEELNKTWQTQPALLTASVAIWRIWQHQGGKLPSLMAGHSLGEYSALVCAGVLDFKQAVSLVELRGKLMQEAVPEGTGAMYAIIGLDNESIAKACEESAQGQVVSPVNFNSPGQVVIAGNKDAVERAGAACKAAGAKRALPLPVSVPSHCALMKPAADKLAVALEKIDFQEPLFPVVNNVDVKAEVSPVAIRSALVRQLYNPVRWTESVEFIAAEGVELLLEIGPGKVLTGLTKRIVDSLAAAAVNDVVTLNSALEH | failed
3 | MSKFTIHTIETAPERVKETLRTVKKDNGGYIPNLIGLLANAPTALETYRTVGEINRRNSLTPTEREVVQITAAVTNGCAFCVAGHTAFSIKQIQMAPDLLEALRNATPIDDDPKLDTLAKFTIAVINTKGRVGDEAFADFLEVGYTPENALDVVLGVSLASLCNYANNMADTPINPELQQYVK | not failed
4 | MSKGTTSQDAPFGTLLGYAPGGVAIYSSDYSSLDPQEYEDDAVFRSYIDDEYMGHKWQCVEFARRFLFLNYGVVFTDVGMAWEIFSLRFLREVVNDNILPLQAFPNGSPRAPVAGALLIWDKGGEFKDTGHVAIITQLHGNKVRIAEQNVIHSPLPQGQQWTRELEMVVENGCYTLKDTFDDTTILGWMIQTEDTEYSLPQPEIAGELLKISGARLENKGQFDGKWLDEKDPLQNAYVQANGQVINQDPYHYYTITESAEQELIKATNELHLMYLHATDKVLKDDNLLALFDIPKILWPRLRLSWQRRRHHMITGRMDFCMDERGLKVYEYNADSASCHTEAGLILERWAEQGYKGNGFNPAEGLINELAGAWKHSRARPFVHIMQDKDIEENYHAQFMEQALHQAGFETRILRGLDELGWDAAGQLIDGEGRLVNCVWKTWAWETAFDQIREVSDREFAAVPIRTGHPQNEVRLIDVLLRPEVLVFEPLWTVIPGNKAILPILWSLFPHHRYLLDTDFTVNDELVKTGYAVKPIAGRCGSNIDLVSHHEEVLDKTSGKFAEQKNIYQQLWCLPKVDGKYIQVCTFTVGGNYGGTCLRGDESLVIKKESDIEPLIVVKK | failed
5 | MSKIDWDSPEGAERYDRNCDHQFQKGHVLIEMMGIKKGDFVLDVGCGTGRQALNVAGIIGPAGKLTGIDPSSYRIELARKKFEGDSSGNVRFLVRQAENLQDIPDNSINHAYFCSSFHWVDDKKTALNEIFRVLRPGGKVGMTTLDRNSPNTMKALIDPILAKFGIERRHEWHRGMKKVTAPELHDLLSGAGFTSISIEPRAVPRKYNSPEEFLQHPEEKDSSRGILRDISNETLEKLRQEITEEFRKAQTPEDIGFGNITLFAIATKAQEGI | failed
6 | MSKKETDLGRDSIGKLLFKLAMPAIIAQLVNVLYNIVDRMFIGRLQSGDMAMAGVGVAFPIIMIVAAFSGLVGMGGAPLAAIKMGEKKKEDAEEIMTNSFSALIGLALFLTVFFFIFKEPILWAFGASDATIGYALDYLGIYLIGTIFVQIALGMNSFINTQGFAKVGMITVMVGAVINIVLDPILIFGFNMGVKGAALATIIGQCASAIWVLYFLFEKQSILRIRKKFLKPKLKILFSIMALGVSPFIMQATESLVIISMNNNLLKYGGDLAVGAMTIMSSVMQIILLPLMGLSQGAQPIISYNYGANKVYRVKKAFKLLLVSSMVFTTIMWSALMMLPDVFVKIFNSNNPQLMEITSWSIKIYFAGILLFGAQVACQQTFLALGQAKISLILALLRKIVLLIPFIYVLPMVFENKLMGVLMAEPFADIIAALSTVTCFIVFYKKHLSQGLEEEIKVNS | failed
7 | MSKKIRNTEVDHLFDAILTLENKEECYTFFEDVCTVNELLSISQRYEVAKMLREGKTYLDISNATGASTATISRVNRSLNYGNDGYDMVLERVLKKDE | not failed
8 | MSKKKETKLSKYIKVPIKMLVKARDMYIRSMNQFSSHDLPGSGMSFGIPVCNVSTLPRSFSASHSQYSVRAEDDRVAKLVRAASARNATIDGARHEPSKLRKAKSSRSCGGHRGFEKIDEASPLISFGSKHKMFQRSKSYSVVKYLGS | failed
9 | MSKNDKPLVSIGIPTYNRAESLKRAINSAVNQTYTNLEIIISDNCSIDETQQLCEELCKLDSRITYIRQAKNFGATNNFSFVLKKATGEYFMWLADDDWISENYIYDCQFFLQNNHQYLLCSGIAKYYLGDDIRMGENICLEENSPIERVKEYFNKVQDNGIFYGLYRKEAVLKLRIPSCFGGDWVFIACILLLGKATTLNTCVIHRVFQEKSTEDYAKEINSKYVLEKSYPYAFICFHFFSEIERTLILQNILTKQQKILLFLDILLTLMRRFGHLYSIEYGWLNIFCIRKKLISLLKIIIRNFRQSCLYFIDSLRTFIYNLKYTPQMYQLYASSKQKNSDLKKLAFFSPVKPIKSGISDYSEELIRFLCKKYQIFVFIDDSYTEKQCPNIENTFYLNHRLFPITSKILGIKKIVYQIGNNYYHNYMFKYINKNHGIVVLHDGIHMSGNVLQQPERHKIVVHSLSASTQVKSKYPNLSVNVISLLMSLPEENLKQDKNSLRHELNIDINTFVFGVFGIISEPKMVYELLLAFCHSFVQNENVAFLMVGYEIADSRVLNFLRANEDDKRLVCKLGVSMEDLYKFIKVTDACFNLRSTSRGETSSSLLRVMSCGIPVIASDIDSFSELPSDVLLKVSQNLSQDELSSILKKIYNEKDKLKEIGKKGKSYINSFHSPSKISDIYSTLIEIE | failed
10 | MSKQPWLGYLASVAITCTAAGLAYLLDHWLLPTSGTVLILQLAVLLIAFLTNFRAALLAVVLALLLFNFLFTEPRYSLHMTDIDEMVTAIVFIAVGVITSHLVTLFRNQKESLRQAQLRSNILLSVSHDLRTPLASVIGNLSTLQAYQERLPEQERAELLQGALDESDRLHRYIENLLQATRLQHGEIRLTHAVQDIRPVISKTLSRFASQERLLVKDNLQHAMVEVQSSLLEQALFNVIDNAMRFSGETAPVTLSLSETDKFIVIDIKDEGPGIETSKRSLVFNVFYSSREKDSGTGGTGLGLSVAKGIIDIHNGHIGIEESPDGCLVRIKLPRANITEEVS | failed
11 | MSKRVLMVVTNHTTITDDHKTGLWLEEFAVPYLVFQEKGYDVKVASIQGGEVPLDPRSINEKDPSWAEAEAALKHTARLSKDDAHGFDAIFLPGGHGTMFDFPDNETLQYVLQQFAEDGRIIAAVCHGPSGLVNATYKDGTPIVKGKTVTSFTDEEEREVGLDVHMPFLLESTLRLRGANFVRGGKWTDFSVRDGNLITGQNPQSSRSTAEKVVAALEERE | not failed
12 | MSKSTKVDLVFLFFTAIWGLSFPLTKNVLGYTSIFAFLSLRFTSAAVILIIIFWKKLKLINTKIILYGSLIGLMFFGSLAFQVASLRFTTSSNSSFISALSVVIVPLVSAGYYKKKIDFSCVLGVLFAVVGLFFISGGVNFKLNIGDLFSFLCAICITFQIIFIDIFCSKCDSALLSLIQVVFCAIFYNIVLFIIGTKPIVFNTQLTVSIFITGILGTAVAYTGIVFLEKFTSPTHTALIFCAEPVFATIFAMFIPNNNGSCESITINTFIGCGVILLSMVISELKIGNNIPQKIIKL | failed
13 | MSKVALFSHVSPDGDCIGSMLGIGLALEALGKEVAMFNPDPIPRNLSFLPGVDKITQSMPDPLPETLLFVDCADLQRVQLQREDLPADAVILNLDHHISNQNFGRINWVDSQAAASGELAYALVRRLNVELTQEIAANFYTALLTDTGSFKYANTTAKTHQIAGELMELEHHHHHH | failed
14 | MSLADISVIQSLPLSGSQAVTGRALNAGARLYFDWLNLNGGINGETIRLVARDDEQKIEQTVRNVRDMARVDNPVALLTVVGTANVEALMREGVLAEARLPLVGPATGASSMTTDPLVFPIKASYQQEIDKMITALVTIGVTRIGVLYQEDALGKEAITGVERTLKAHALAITAMASYPRNTANVGPAVDKLLAADVQAIFLGATAEPAAQFVRQYRARGGEAQLLGLSSIDPGILQKVAGLDAVRGYSLALVMPNPGKSVNPVIREFNRARAAVGAKDVDLSFRAVEGFVAAKVLAEAIRRAGPKPTREQVRHALTELRDYDVGGGFTVDFTDRSRPGSHYIELGVVGPNGLVIQEGHHHHHH | not failed
15 | MSLADTRKIDSVLLIDDDDIVNFLNTTIIRMTHRVEEIQSVTSGNAAINKLNELYAAGRWPSIICIDINMPGINGWELIDLFKQHFQPMKNKSIVCLLSSSLDPRDQAKAEASDWVDYYVSKPLTANALNNLYNKVLNEGHHHHHH | not failed
16 | MSLAEGKWWRIMLVDTQLPALAASISALSQEGFDIIQCGNAIEAVPVAVKTHPHLIITEANMPKISGMDLFNSLKKNPQTASIPVIALSGRATAKEEAQLLDMGFIDFIAKPVNAIRLSARIKRVLKLLYEDLSAPPAREGHHHHHH | not failed
17 | MSLANLSELPNIGKVLEQDLIKAGIKTPVELKDVGSKEAFLRIWENDSSVCMSELYALEGAVQGIRWHGLDEAKKIELKKFHQSLEGHHHHHH | not failed
18 | MSLAPWRGAIAHALHRNRSLVYARYLQLATVQPNGRPANRTLVFRGFLEDTNQLRFITDTRSAKADQIQQQPWAEICWYFPNTREQFRMAGDLTLISSDDSHQDLQPARIAMWQELSDAARLQFGWPYPGKPRIKESGAFEPSPPDPIEPVPNFCLLLLDPVQVDHLELRGEPQNRWLYHRNDQQEWSSEAINP | not failed
19 | MSLDALTTLPIKKHTALLNRFPETRFVTQLAKKRASWIVFGHYLTPAQFEDMDFFTNRFNAILDMWKVGRYEVALMDGELTSEHETILKALELDYARIQDVPDLTKPGLIVLDMDSTAIQIECIDEIAKLAGVGEEVAEVTERAMQGELDFEQSLRLRVSKLKDAPEQILSQVRETLPLMPELPELVATLHAFGWKVAIASGGFTYFSDYLKEQLSLDYAQSNTLEIVSGKLTGQVLGEVVSAQTKADILLTLAQQYDVEIHNTVAVGDGANDLVMMAAAGLGVAYHAKPKVEAKAQTAVRFAGLGGVVCILSAALVAQQKLSWKSKEGHHHHHH | not failed
